# Patent US20160257957
# T1: HHR23A (recombinant, wild type), P54725
# T1 chain: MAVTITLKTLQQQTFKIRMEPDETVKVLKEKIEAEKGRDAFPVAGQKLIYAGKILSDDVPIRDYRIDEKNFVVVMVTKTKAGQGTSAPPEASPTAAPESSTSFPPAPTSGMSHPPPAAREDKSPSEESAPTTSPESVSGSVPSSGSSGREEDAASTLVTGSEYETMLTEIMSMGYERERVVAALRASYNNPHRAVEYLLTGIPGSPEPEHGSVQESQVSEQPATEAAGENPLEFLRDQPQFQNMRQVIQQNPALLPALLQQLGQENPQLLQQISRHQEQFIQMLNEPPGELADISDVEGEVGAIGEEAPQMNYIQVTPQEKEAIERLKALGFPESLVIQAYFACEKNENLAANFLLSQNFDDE
# T2: Arc C-terminal protein (132-396 a.a.), Q63053
# T2 chain: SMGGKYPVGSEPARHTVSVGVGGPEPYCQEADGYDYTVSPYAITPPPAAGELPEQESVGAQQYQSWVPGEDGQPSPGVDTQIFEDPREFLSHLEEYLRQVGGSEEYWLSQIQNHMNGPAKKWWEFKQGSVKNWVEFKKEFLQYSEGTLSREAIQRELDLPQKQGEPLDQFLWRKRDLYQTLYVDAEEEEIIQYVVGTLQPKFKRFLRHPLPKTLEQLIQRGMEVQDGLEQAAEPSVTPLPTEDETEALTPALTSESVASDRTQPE
# How the values were obtained:
# [1] = target: T1, HHR23A (recombinant, wild type), P54725
# [2] = target: T2, Arc C-terminal protein (132-396 a.a.), …
protein,measurement,setting,value
Ube3A (recombinant) (protein) SGEPQSDDIEASRMKRAAAKHLIERYYHQLTEGCGNEACTNEFCASCPTFLRMDNNAAAIKALELYKINAKLCDPHPSKKGASSAYLENSKGAPNNSCSEIKMNKKGARIDFKDVTYLTEEKVYEILELCREREDYSPLIRVIGRVFSSAEALVQSFRKVKQHTKEELKSLQAKDEDKDEDEKEKAACSAAAMEEDSEASSSRIGDSSQGDNNLQKLGPDDVSVDIDAIRRVYTRLLSNEKIETAFLNALVYLSPNVECDLTYHNVYSRDPNYLNLFIIVMENRNLHSPEYLEMALPLFCKAMSKLPLAAQGKLIRLWSKYNADQIRRMMETFQQLITYKVISNEFNSRNLVNDDDAIVAASKCLKMVYYANVVGGEVDTNHNEEDDEEPIPESSELTLQELLGEERRNKKGPRVDPLETELGVKTLDCRKPLIPFEEFINEPLNEVLEMDKDYTFFKVETENKFSFMTCPFILNAVTKNLGLYYDNRIRMYSERRITVLYSLVQGQQLNPYLRLKVRRDHIIDDALVRLEMIAMENPADLKKQLYVEFEGEQGVDEGGVSKEFFQLVVEEIFNPDIGMFTYDESTKLFWFNPSSFETEGQFTLIGIVLGLAIYNNCILDVHFPMVVYRKLMGKKGTFRDLGDSHPVLYQSLKDLLEYEGNVEDDMMITFQISQTDLFGNPMMYDLKENGDKIPITNENRKEFVNLYSDYILNKSVEKQFKAFRRGFHMVTNESPLKYLFRPEEIELLICGSRNLDFQALEETTEYDGGYTRDSVLIREFWEIVHSFTDEQKRLFLQFTTGTDRAPVGGLGKLKMIIAKNGPDTERLPTSHTCFNVLLLPEYSSKEKLKERLLKAITYAKGFGML,ubiquitination of HHR23A by Ube3A,[1],this domain is required for Ube3A to ubiquitinate HHR23A
same,in vitro ubiquitination assay using purified recombinant proteins,[2],Ube3A ubiquitinated Arc in vitro
